From patent publication US20190169302A1 (SORRENTO THERAPEUTICS, published 2019)
Like-named read-outs stand apart in the source and are kept apart here.

T1: Recombinant human OX40/His (human, UniProt P43489 29-216, limits assumed)
T1 construct: SPR analyte; also called human OX40 proteins; not shown: His tag
T1 sequence: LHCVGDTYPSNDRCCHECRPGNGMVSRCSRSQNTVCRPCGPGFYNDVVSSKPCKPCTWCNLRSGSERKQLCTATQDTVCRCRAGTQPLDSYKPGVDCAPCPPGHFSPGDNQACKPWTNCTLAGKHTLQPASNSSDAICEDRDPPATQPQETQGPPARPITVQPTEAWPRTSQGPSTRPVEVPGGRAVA

T2: Recombinant human OX40/His (UniProt P43489 29-216)
T2 chain: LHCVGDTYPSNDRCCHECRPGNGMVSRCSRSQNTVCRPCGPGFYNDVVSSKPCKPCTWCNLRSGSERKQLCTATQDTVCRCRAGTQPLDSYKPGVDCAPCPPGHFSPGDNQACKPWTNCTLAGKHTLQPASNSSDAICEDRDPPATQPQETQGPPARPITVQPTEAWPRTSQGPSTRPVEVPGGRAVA

T3: human OX40 antigen (soluble, titrated in the ELISA of Example 1) (UniProt P43489 29-216)
T3 chain: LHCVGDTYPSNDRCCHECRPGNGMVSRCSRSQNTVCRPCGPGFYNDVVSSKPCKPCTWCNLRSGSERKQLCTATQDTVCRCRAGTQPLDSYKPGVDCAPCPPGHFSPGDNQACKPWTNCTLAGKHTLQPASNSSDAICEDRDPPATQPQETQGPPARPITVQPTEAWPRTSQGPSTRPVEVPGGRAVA

T4: mouse OX40 (mouse, UniProt P47741 20-211, limits assumed)
T4 construct: Capture on Ni-NTA implies a His tag; also called mouse OX40 antigen
T4 sequence (looked up): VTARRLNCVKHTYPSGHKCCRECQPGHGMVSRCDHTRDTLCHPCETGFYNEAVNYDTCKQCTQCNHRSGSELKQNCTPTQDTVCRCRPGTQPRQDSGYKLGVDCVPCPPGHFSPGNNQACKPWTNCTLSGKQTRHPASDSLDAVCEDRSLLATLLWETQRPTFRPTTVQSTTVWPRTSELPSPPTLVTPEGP

T5: membrane-bound human OX40 (on human OX40-expressing cells) (human, UniProt P43489 29-277)
T5 construct: also called human OX40-expressing MJ cells; OX40+ HEK293-NFkB-luciferase reporter cells
T5 sequence: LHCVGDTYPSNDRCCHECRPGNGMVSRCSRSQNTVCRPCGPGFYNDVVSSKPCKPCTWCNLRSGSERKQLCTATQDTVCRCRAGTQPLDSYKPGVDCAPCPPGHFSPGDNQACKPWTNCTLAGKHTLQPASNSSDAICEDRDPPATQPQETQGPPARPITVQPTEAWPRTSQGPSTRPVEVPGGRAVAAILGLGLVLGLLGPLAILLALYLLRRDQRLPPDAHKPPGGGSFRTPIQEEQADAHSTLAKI


Columns and labels:
[1] = target: human OX40/His (UniProt P43489); assay: SPR
[2] = target: T1, Recombinant human OX40/His; assay: SPR (Biacore T200), antibody captured by anti-human Fc, OX40/His as analyte, 1:1 model
Description: Kinetic interactions between antibodies and human OX40 proteins were measured at 25° C. using Biacore T200 surface plasmon resonance (GE Healthcare). Anti-human fragment crystallizable region (Fc region) antibody was immobilized on a CMS sensor chip to approximately 8000 resonance units (RU) using standard N-hydroxysuccinimide/N-Ethyl-N′-(3-dimethylaminopropyl) carbodiimide hydrochloride (NHS/EDC) coupling methodology. The anti-OX40 antibody (2 μg/mL) was captured for 60 seconds at a flow rate of 10 μL/minute. Recombinant human OX40/His was serially diluted in a running buffer of 0.01 M HEPES pH 7.4, 0.15 M NaCl, 3 mM EDTA, 0.05% v/v Surfactant P20 (HBS-EP+). All measurements were conducted in HBS-EP+ buffer with a flow rate of 30 μL/minute. A 1:1 (Langmuir) binding model was used to fit the data.

[3] = target: T2, Recombinant human OX40/His; assay: SPR
[4] = target: T3, human OX40 antigen (soluble, titrated …); assay: ELISA, immobilized Ab
[5] = target: T2, Recombinant human OX40/His; assay: SPR
[6] = target: T4, mouse OX40; assay: ELISA, OX40 antigen captured on Ni-NTA plate, antibody at 1 ug/mL
Description: Ni-NTA plate was captured with 50 ul per well of human, mouse, and rhesus OX40 antigen solutions at a concentration of 1 ug/ml in PBS and incubated 1 hour at room temperature. After washing the plate with 0.05% PBS/Tween, 1 ug/mL the human anti-OX40 antibodies in Blocker™ Casein in PBS (Thermo Fisher Catalog Number: 37528) were added with 50 ul per well and incubated for one hour at room temperature. The plate was washed again with 0.05% PBS/Tween and incubated with 50 ul of Jackson Immuno Research Peroxidase AffiniPure Goat Anti-Human IgG, Fcγ Fragment (Catalog Number: 109-035-098) for one hour at room temperature. After washing, the plate was developed with 1-Step™ Ultra TMB-ELISA Substrate Solution (Thermo Fisher Catalog Number: 34028). The plate was read in the FlexStation 3 at OD 450.

[7] = target: T5, membrane-bound human OX40 (on human …); assay: flow cytometry on human OX40-expressing MJ cells

| Molecule | Kd [1] | Kd [2] | Kd [3] | IC50 [4] | Kd [5] | binding result [6] | binding result [7] |
| --- | --- | --- | --- | --- | --- | --- | --- |
| MOXR0916/RG7888 | 3.2 nM |  |  |  |  |  |  |
| 5-A8 variant anti-OX40 antibody (antibody, V domains shown) VH: QVQLVQSGAEVKKPGASVKVSCKTSGYTFTGYYLHWVRQAPGQGLEWMGIINPSDGSTRNAQKFEGRVTMTRDTSTSTVYMELSSLSPEDTAVYYCARDLEYIGSGSLSWFDPWGQGTLVTVSS VL: QSALTQPASVSGSPGQSITISCTGSSSDIGGYNSVSWYQQYPGKAPKLIIYDVNNRPSGVSNRFSGSKSGNTASLTISGLQAEDEADYYCSSYTFHTGLVYVFGTGTKVTVL |  | < 5 nM | 4.37 nM | 0.0163 µg/mL |  |  |  |
| 5-G8 variant anti-OX40 antibody (antibody, V domains shown) VH: QVQLVQSGAEVKKPGASVKVSCKTSGYTFTGYYLHWVRQAPGQGLEWMGIINPSDGSTRNAQKFEGRVTMTRDTSTSTVYMELSSLSPEDTAVYYCARDLEYIGSGSLSWFDPWGQGTLVTVSS VL: QSALTQPASVSGSPGQSITISCTGSSSDIGGYNSVSWYQQYPGKAPKLIIYDVNNRPSGVSNRFSGSKSGNTASLTISGLQAEDEADYYCSSYTYYTELVYVFGTGTKVTVL |  | < 5 nM | 3.8 nM | 0.0254 µg/mL |  |  |  |
| 5-F5 variant anti-OX40 antibody (antibody, V domains shown) VH: QVQLVQSGAEVKKPGASVKVSCKTSGYTFTGYYLHWVRQAPGQGLEWMGIINPSDGSTRNAQKFEGRVTMTRDTSTSTVYMELSSLSPEDTAVYYCARDLEYIGSGSLSWFDPWGQGTLVTVSS VL: QSALTQPASVSGSPGQSITISCTGSSSDIGGYNSVSWYQQYPGKAPKLIIYDVNNRPSGVSNRFSGSKSGNTASLTISGLQAEDEADYYCSSYTYDTGLVYVFGTGTKVTVL |  | < 5 nM | 3.01 nM | 0.0263 µg/mL |  |  |  |
| 5-C8 variant anti-OX40 antibody (antibody, V domains shown) VH: QVQLVQSGAEVKKPGASVKVSCKTSGYTFTGYYLHWVRQAPGQGLEWMGIINPSDGSTRNAQKFEGRVTMTRDTSTSTVYMELSSLSPEDTAVYYCARDLEYIGSGSLSWFDPWGQGTLVTVSS VL: QSALTQPASVSGSPGQSITISCTGSSSDIGGYNSVSWYQQYPGKAPKLIIYDVNNRPSGVSNRFSGSKSGNTASLTISGLQAEDEADYYCSSYTHNTGLVYVFGTGTKVTVL |  | < 5 nM | 4.39 nM | 0.00353 µg/mL |  |  |  |
| 2B4 wild type anti-OX40 antibody (antibody, V domains shown, Fully human antibody of an IgG class, captured or detected through human Fc; the isotype control used was IgG1; also called 2B4 (WT); wild type 2B4) VH: QMQLVQSGAEVKKPGASVKVSCKTSGYTFTGYYLHWVRQAPGQGLEWMGIINPSDGSTRNAQKFEGRVTMTRDTSTSTVYMELSSLSPEDTAVYYCARDLEYIGSGSLSWFDPWGQGTLVTVSS VL: QPVLTQPASVSGSPGQSITISCTGTSSDLGAYDYVSWYQQQPGQAPKLIIYDVNNRPSGVSNRFSGSKSGNTASLTISGLQAEDEADYYCSSYTSSSTLVYVFGTGTKVTVL |  |  | 332 nM | 0.168 µg/mL | 332 nM | no binding (tested: 1 ug/mL) | binds |
| 5-H6 variant anti-OX40 antibody (antibody, V domains shown) VH: QVQLVQSGAEVKKPGASVKVSCKTSGYTFTGYYLHWVRQAPGQGLEWMGIINPSDGSTRNAQKFEGRVTMTRDTSTSTVYMELSSLSPEDTAVYYCARDLEYIGSGSLSWFDPWGQGTLVTVSS VL: QSALTQPASVSGSPGQSITISCTGSSSDIGGYNSVSWYQQYPGKAPKLIIYDVNNRPSGVSNRFSGSKSGNTASLTISGLQAEDEADYYCSSYTYDNDLVYVFGTGTKVTVL |  | < 5 nM | 3.51 nM | 0.0275 µg/mL |  |  |  |
| 5-A6 variant anti-OX40 antibody (antibody, V domains shown) VH: QVQLVQSGAEVKKPGASVKVSCKTSGYTFTGYYLHWVRQAPGQGLEWMGIINPSDGSTRNAQKFEGRVTMTRDTSTSTVYMELSSLSPEDTAVYYCARDLEYIGSGSLSWFDPWGQGTLVTVSS VL: QSALTQPASVSGSPGQSITISCTGSSSDIGGYNSVSWYQQYPGKAPKLIIYDVNNRPSGVSNRFSGSKSGNTASLTISGLQAEDEADYYCSSYTFDTGLVYVFGTGTKVTVL |  | < 5 nM | 2.41 nM | 0.0117 µg/mL |  |  |  |
